From patent publication US20230338477A1 (published 2023)
Numbering of substitutions follows the chain as printed.

B1: 12795B (antibody, V domains shown)
VH: EVQLVESGGGLVQPGGSLRLSCATSGFTFTSYDMKWVRQAPGLGLEWVSAISGSGGNTYYADSVKGRFTISRDNSRNTLYLQMNSLRAEDTAVYYCTRSHDFGAFDYFDYWGQGTLVTVSS
VL: DIQMTQSPSSLSASVGDRVTITCRASQGIRDHFGWYQQKPGKAPKRLIYAASSLHSGVPSRFSGSGSGTEFTLTISSLQPEDFATYYCLQYDTYPLTFGGGTKVEIK
notes: Anti-hTfR antibody of the initial screen; only variable domains are tied to it
B2: 12801B (antibody, V domains shown)
VH: EVQLLESGGALVQPGGSLRLSCAASGFTFTSYAMHWVRQAPGKGLEWVSSIRGSGGGTYSADSVKGRFTISRDNSRDTLYLQMNSVRAEDTAVYYCARSHDYGAFDFFDYWGQGTLVTVSS
VL: B1 VL with D31T, H32D, F33L, H55Q, Q79R, Y86F, D92N, T93S
notes: as for B1
B3: 12847B (antibody, V domains shown)
VH: EVQLVESGGGLVQPGRSLRLSCAASGFTFDDYAMNWVRQAPGKGLEWVSGISWSSGSMDYADSVKGRFTISRDNAKNSLYLQMNSLRTEDTALYYCAKAREVGDYYGMDVWGQGTTVTVSS
VL: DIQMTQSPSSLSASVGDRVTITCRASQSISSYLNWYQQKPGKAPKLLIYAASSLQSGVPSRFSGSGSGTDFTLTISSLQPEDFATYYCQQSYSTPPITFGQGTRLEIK
notes: as for B1
B4: 12843B (antibody, V domains shown)
VH: EVQLVESGGGLVQPGGSLRLSCAASGFTFNIFEMNWVRQAPGKGLEWISYISSRGTTTYYADSVRGRFTISRDNAKNSLYLQMNSLRAEDTAVYYCARDYEATIPFDFWGQGTLVTVSS
VL: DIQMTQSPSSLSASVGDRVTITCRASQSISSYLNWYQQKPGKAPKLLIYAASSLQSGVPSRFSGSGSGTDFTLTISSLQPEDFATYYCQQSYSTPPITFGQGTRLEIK
notes: as for B1
B5: 12833B (antibody, V domains shown)
VH: QVQLVESGGGVVQPGRSLRLSCAASGFTFSSFGMHWVRQAPGKGLEWVIFISYDGSDKYYADSVKGRFAISRDSSKNTLYLQMNSLRAEDTAVYYCAKENGILTDSYGMDVWGQGTTVTVSS
VL: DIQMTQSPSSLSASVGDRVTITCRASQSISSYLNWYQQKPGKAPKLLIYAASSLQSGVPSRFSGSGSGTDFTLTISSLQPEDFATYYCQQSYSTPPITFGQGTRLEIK
notes: as for B1
B6: 12835B (antibody, V domains shown)
VH: EVQLVESGGGLIQPGGSLRLSCEASGFTFRNYEMNWVRQAPGKGLEWVSYISSSGNMKDYAESVKGRFTISRDNVKNSLQLQMNSLRVEDTAVYYCARDEFPYGMDVWGQGTTVTVSS
VL: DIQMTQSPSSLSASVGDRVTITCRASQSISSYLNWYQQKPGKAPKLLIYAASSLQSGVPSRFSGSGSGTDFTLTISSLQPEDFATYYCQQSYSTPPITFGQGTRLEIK
notes: as for B1
B7: 12850B (antibody, V domains shown)
VH: QVQLVQSGAEVKKPGSSVKVSCKASGGTFNTYAITWVRQAPGQGLEWMGGIIPISGIAEYAQKFQGRVTITTDDSSTTAYMELNSLRSEDTAVYYCASWNYALYYFYGMDVWGRGTTVTVSS
VL: not shown
notes: as for B1
B8: 12834B (antibody, V domains shown)
VH: QVQLVQSGAEVKKPGASVKVSCKASGYTFTSYGISWVRQAPGQGLEWMGWISVYHGNTNYAQKFQGRVTMTTDTSTSTAYMELRSLRSDDTAVYYCAREGYYDFWSGYYPFDYWGQGTLVTVSS
VL: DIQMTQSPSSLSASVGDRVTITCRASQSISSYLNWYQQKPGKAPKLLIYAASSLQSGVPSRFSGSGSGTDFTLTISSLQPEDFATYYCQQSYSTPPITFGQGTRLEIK
notes: as for B1
B9: 69329 (antibody, V domains shown)
VH: EVQLVESGGGLVQPGGSLRLSCAASGFTFSNYWMTWVRQAPGKGLEWVANIKEDGSEKDYVDSVKGRFTISRDNAKNSLYLQMNSLRGEDTAVYYCARDGEQLVDYYYYYVMDVWGQGTTVTVSS
VL: DIQMTQSPSSVSASVGDRVTITCRASQGISSWLAWYQQKPGKAPKLLIYAASSLQSGVPSRFSGSGSGTDFTLTISSLQPEDFATYYCQKANSFPYTFGQGTKLEIK
notes: as for B1
B10: 12799B (antibody, V domains shown)
VH: QITLKESGPTLVKPTQTLTLTCTFSGFSLSTSGVGVVWIRQPPGKALEWLALIYWNDHKRYSPSLGSRLTITKDTSKNQVVLTMTNMDPVDTATYYCAHYSGSYSYYYYGLDVWGQGTTVTVSS
VL: B9 VL with S30A, K45E, S56G, T85I, K90Q, S93Y, Y96W, L104V
notes: as for B1
B11: 12812B (antibody, V domains shown)
VH: QVQLVQSGAEVKKPGSSVRVSCKASRGTFSSYAISWVRQAPGQGLEWMGGIIPIFGTANYAQKFLARVTITADESTSTAYMELSSLRSEDTAVYYCAREKGWNYFDYWGQGTLVTVSS
VL: B9 VL with S9P, K90Q, Y96R, L104V
notes: as for B1
B12: 69307 (antibody, V domains shown)
VH: B9 VH with A23T, D59E
VL: B9 VL with N92D, F94L, T97A
notes: as for B1
B13: 12808B (antibody, V domains shown)
VH: QLQLQESGPGLVKPSETLSLTCTVSGESISSNTYYWGWIRQPPGKGLEWIGSIDYSGTTNYNPSLKSRVTISVDTSRNHFSLRLRSVTAADTAVYYCAREWGNYGYYYGMDVWGQGTTVTVSS
VL: DIQMTQSPSSLSASVGDRVTINCRASQGIRNDLGWYQQKPGKAPKRLIYAASSLQSGVPLRFSGSGSGTEFTLTINNLQPEDFATYYCLSHNSYPWTFGQGTKVEIK
notes: as for B1
B14: 12844B (antibody, V domains shown)
VH: EVQLVESGGSVVRPGGSLRLSCEASGFTFDDYGMSWVRQDPGKGLEWVSGINWNGDRTNYADSVKGRFIISRDNAKNSVYLQMNSLRAEDSALYHCARDQGLGVAATLDYWGQGTLVTVSS
VL: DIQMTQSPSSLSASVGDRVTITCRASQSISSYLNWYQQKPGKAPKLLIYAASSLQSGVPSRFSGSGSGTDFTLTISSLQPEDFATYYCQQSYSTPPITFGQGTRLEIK
notes: as for B1
B15: 69323 (antibody, V domains shown)
VH: EVQLVESGGGLVQPGRSLRLSCAASGFTFDDYAMHWVRQAPGKGLEWVSGISWNSGYIGYADSVKGRFTISRDNAENSLHLQMNSLRAEDTALYYCARGGSTLVRGVKGGYYGMDVWGQGTTVTVSS
VL: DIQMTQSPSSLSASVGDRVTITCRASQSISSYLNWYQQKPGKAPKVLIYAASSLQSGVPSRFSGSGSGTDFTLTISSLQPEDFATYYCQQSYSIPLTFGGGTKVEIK
notes: as for B1
B16: 31874B (antibody, V domains shown)
VH: EVQLVESGGGLVQPGGSLRLSCAASGFAFSSYAMTWVRQAPGKGLEWVSVISGTGGSTYYADSVKGRFTISRDNSKNTLYLQMNSLRAEDTAVYYCAKGGAARRMEYFQYWGQGTLVTVSS
VL: DIQMTQSPSSLSASVGDRVTITCRASQGISNYLAWYQQKPGKVPNLLIYAASTLQSGVPSRFSGSGSGTDFTLTISSLQPEDVATYYCQKYNSAPLTFGGGTKVEIK
notes: as for B1
B17: 69263 (antibody, V domains shown)
VH: EVQLVESGGGLVQPGRSLRLSCAVSGFTFDDYAMHWVRQAPGKGLEWVSGISWNSGTRGYADSVKGRFTISRDNAKNSLYLQMNSLRGEDTALYYCVKDITISPNYYGMDVWGQGTTVTVSS
VL: B16 VL with G28D, N31H, L33S, V43L, T72S, I75T, A94V
notes: as for B1
B18: 31863B (antibody, V domains shown)
VH: EVQLVESGGGLVQPGGSLRLSCAASGFTFNSYAMTWVRQAPGKGLEWVSFIGGSTGNTYYAGSVKGRFTISSDNSKKTLYLQMNSLRAEDTAVYYCAKGGAARRMEYFQHWGQGTLVTVSS
VL: B16 VL with V15I, N45K, K90N, Y91H, A94V
notes: as for B1
B19: 12839B (antibody, V domains shown)
VH: QVQLVESGGGVVQPGRSLRLSCAASGFPFSNYVMYWVRQAPGKGLEWVALIFFDGKKNYHADSVKGRFTITRDNSKNMLYLQMNSLRPEDAAVYYCAKIHCPNGVCYKGYYGMDVWGQGTTVTVSS
VL: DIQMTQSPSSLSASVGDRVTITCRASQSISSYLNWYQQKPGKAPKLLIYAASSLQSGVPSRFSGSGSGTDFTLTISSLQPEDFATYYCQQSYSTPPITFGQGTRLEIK
notes: as for B1
B20: 69305 (antibody, V domains shown)
VH: QVQLVESGGGVVQPGRSLRLSCAASGFTFSSYGMHWVRQAPGKGLEWVAVIWYDGSNKYYADSVKGRFTISRDISKNTLYLQMNSLRAEDTAVYYCAGQLDLFFDYWGQGTLVTVSS
VL: DIQMTQSPSSLSASVGDRVTITCRASQSIDRYLNWYRQKPGKAPKLLIYTTSSLQSGVPSRFSGSGSGTDFTLTLSSLQPEDFATYYCQQSYSPPLTFGGGTKVEIK
notes: as for B1
B21: 12816B (antibody, V domains shown)
VH: QVQLVESGGGLVKPGGSLRLSCAASGFTFSDYYMNWIRQAPGKGLEWVSYISSSGTTIYYADSVKGRFTISRDNAKKSLYLEMNSLRAEDTAVYYCAREGYGNDYYYYGIDVWGQGTTVTVSS
VL: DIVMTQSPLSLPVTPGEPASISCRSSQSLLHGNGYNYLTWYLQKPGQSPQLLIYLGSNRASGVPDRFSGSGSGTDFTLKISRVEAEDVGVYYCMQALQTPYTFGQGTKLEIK
notes: as for B1
B22: 69261 (antibody, V domains shown)
VH: B21 VH with D31V, T56S, K77N, E82Q, A97G, G102S, N103G, D104T, Y106S, I110M
VL: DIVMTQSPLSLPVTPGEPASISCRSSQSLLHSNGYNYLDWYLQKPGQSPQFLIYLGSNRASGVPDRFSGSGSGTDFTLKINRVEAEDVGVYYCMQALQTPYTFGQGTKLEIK
notes: as for B1
B23: 12841B (antibody, V domains shown)
VH: EVQLVESGGGLVQPGGSLRLSCAASGFTFSNYWMNWVRQAPGKGLEWVANIKEDGGKKLYVDSVKGRFTISRDNAKNSLFLQMNSLRAEDTAVYYCAREDTTLVVDYYYYGMDVWGQGTTVTVSS
VL: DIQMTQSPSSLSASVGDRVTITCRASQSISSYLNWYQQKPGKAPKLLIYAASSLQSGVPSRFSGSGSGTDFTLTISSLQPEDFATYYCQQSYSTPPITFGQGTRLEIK
notes: as for B1
B24: 12798B (antibody, V domains shown)
VH: EVQLVESGGDLVQPGRSLRLSCAASGFTFDDYAMHWVRQAPGKGLEWVSGISWNSATRVYADSVKGRFTISRDNAKNFLYLQMNSLRSEDTALYHCAKDMDISLGYYGLDVWGQGTTVTVSS
VL: not shown
notes: as for B1
B25: 12802B (antibody, V domains shown)
VH: QVQLVESGGGLVKPGGSLRLSCAASGFTFSDYFMSWIRQAPGKGLEWVSYISSTGSTINYADSVKGRFTISRDNVKNSLYLQMTSLRVEDTAVYYCTRDNWNYEYWGQGTLVTVSS
VL: EIVMTQSPATLSVSPGERATLSCRASQSVSINLAWYQQKPGQAPRLLIFVASTRATGIPARFSGSGSGTEFTLTISSLQSEDFATYYCQQYDIWPYTFGQGTKLEIK
notes: as for B1
B26: 12845B (antibody, V domains shown)
VH: EVQLVESGGGLVQPGGSLRLSCAASGFTVSNYEMNWVRQAPGKGLEWVSYISSSTSNIYYADSVKGRFTISRDNAENSLYLQMNSLRVEDTAVYYCVRDGIVVVPVGRGYYYYGLDVWGQGTTVTVSS
VL: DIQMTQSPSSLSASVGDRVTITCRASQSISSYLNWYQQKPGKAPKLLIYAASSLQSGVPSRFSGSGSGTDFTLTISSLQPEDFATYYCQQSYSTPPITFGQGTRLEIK
notes: as for B1
B27: 12848B (antibody, V domains shown)
VH: EVQLVESGGGLVQPGRSLTLSCAASGFTFDNFGMHWVRQGPGKGLEWVSGLTWNSGVIGYADSVKGRFTISRDNAKNSLYLQMNSLRPEDTALYYCAKDIRNYGPFDYWGQGTLVTVSS
VL: not shown
notes: as for B1

Biological target: T1, human transferrin receptor 1 (hTfR) (human, UniProt P02786 89-760, limits assumed)
T1 construct: also called TFRC; transferrin receptor protein 1
T1 sequence (P02786 89-760 limits assumed): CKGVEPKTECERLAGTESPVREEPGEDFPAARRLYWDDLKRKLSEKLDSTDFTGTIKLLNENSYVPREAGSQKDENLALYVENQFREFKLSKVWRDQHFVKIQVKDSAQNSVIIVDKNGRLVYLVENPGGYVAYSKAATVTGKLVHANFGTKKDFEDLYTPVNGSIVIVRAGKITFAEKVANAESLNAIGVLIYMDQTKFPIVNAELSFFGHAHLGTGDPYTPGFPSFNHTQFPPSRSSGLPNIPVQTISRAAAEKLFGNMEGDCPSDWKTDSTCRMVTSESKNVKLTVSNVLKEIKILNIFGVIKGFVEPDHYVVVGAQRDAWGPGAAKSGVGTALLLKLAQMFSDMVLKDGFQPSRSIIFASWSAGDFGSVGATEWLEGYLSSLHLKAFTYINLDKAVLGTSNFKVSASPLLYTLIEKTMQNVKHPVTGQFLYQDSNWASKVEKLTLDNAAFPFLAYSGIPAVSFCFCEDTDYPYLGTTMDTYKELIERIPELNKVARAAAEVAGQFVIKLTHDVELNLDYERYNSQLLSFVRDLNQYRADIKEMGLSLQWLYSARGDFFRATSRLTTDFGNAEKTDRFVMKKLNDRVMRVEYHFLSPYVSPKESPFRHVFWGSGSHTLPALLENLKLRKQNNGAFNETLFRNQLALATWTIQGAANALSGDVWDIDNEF
Assay: in vitro binding screen, method not described

Row | binding result | Binder
1 | binds | B1
2 | binds | B2
3 | binds | B3
4 | binds | B4
5 | binds | B5
6 | binds | B6
7 | binds | B7
8 | binds | B8
9 | binds | B9
10 | binds | B10
11 | binds | B11
12 | binds | B12
13 | binds | B13
14 | binds | B14
15 | binds | B15
16 | binds | B16
17 | binds | B17
18 | binds | B18
19 | binds | B19
20 | binds | B20
21 | binds | B21
22 | binds | B22
23 | binds | B23
24 | binds | B24
25 | binds | B25
26 | binds | B26
27 | binds | B27
